From paper PMC4220643, “Localization of the CyanoP binding site on photosystem II by surface plasmon resonance spectroscopy” (Frontiers in Plant Science, 2014)

T1: PsbV (Thermosynechococcus elongatus, UniProt P0A386 27-163)
T1 construct: PsbV of Thermosynechococcus elongatus, without signal peptide; details of expression and purification are in the supplementary material; also called extrinsic PSII subunit PsbV; source: expressed after a published protocol (Andrews et al., 2005), purified as strep-tagged protein
T1 sequence (looked up): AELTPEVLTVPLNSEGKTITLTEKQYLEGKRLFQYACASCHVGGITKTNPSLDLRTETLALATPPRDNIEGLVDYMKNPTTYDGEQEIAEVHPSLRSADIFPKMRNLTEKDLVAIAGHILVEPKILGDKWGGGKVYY

T2: PsbO (Thermosynechococcus elongatus, UniProt P0A431 27-272)
T2 construct: PsbO of Thermosynechococcus elongatus, without signal peptide; Expression vector derived from pIVEX2.4d; tags and purification are told only in the supplementary material; also called extrinsic PSII subunit PsbO; source: E. coli Overexpress C43, purified
T2 sequence (looked up): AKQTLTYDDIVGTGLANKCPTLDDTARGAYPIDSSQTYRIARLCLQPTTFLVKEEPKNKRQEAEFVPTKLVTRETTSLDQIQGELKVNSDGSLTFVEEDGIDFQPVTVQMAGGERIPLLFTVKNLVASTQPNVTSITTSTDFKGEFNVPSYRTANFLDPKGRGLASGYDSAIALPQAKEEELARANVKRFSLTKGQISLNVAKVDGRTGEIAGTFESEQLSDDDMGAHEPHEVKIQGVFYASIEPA

B1: CyanoP (natural protein, Thermosynechococcus elongatus, UniProt Q8DH84 20-183, looked up)
chain: CSATSGLQAYVDSYDGYEFLYPRGWVQVQVEDPVDVVFHDIIETTENVSVVVNTVASTKSLEELGSPEEVGDRLLRNIIAPSESGRSSALIAATSQKADDKTYYILEYAVTLPGDGNTAQQRHNLSSIAVSRGKVYTLSVSAPEERWPKVEDQFKTIVSSFTVY
notes: CyanoP of Thermosynechococcus elongatus, without signal peptide; Expression vector derived from pIVEX2.4d; tags and purification are told only in the supplementary material; also called recombinant CyanoP; cyanobacterial homolog of higher plant PsbP; source: E. coli Overexpress C43, purified

How the values were obtained:
Conditions in all cases: both partners purified
CyanoP = molecular target: B1; experiment: SPR; Biacore3000, CM5 chip with covalently bound DNase E7; Im7-tagged luminal PSII domain captured from the cell-free reaction mixture (on-chip purification); reference surface with Im7, both surfaces saturated with purified Im7; soluble protein injected as analyte in triplicate; steady state responses fitted to a one site binding isotherm
PsbV [1] = molecular target: T1, PsbV; experiment: as above
PsbO = molecular target: T2, PsbO; experiment: as above
[2] = molecular target: T3, Im7-CP47 (e-loop of CP47 fused to Im7) (Thermosynechococcus elongatus, UniProt Q8DIQ1 255-450); experiment: as above
T3 construct: luminal e-loop of CP47 (PsbB) of Thermosynechococcus elongatus; source: cell-free expression (RTS100, 5Prime), purified on the SPR sensor surface via DNase E7; not shown: Im7 (immunity protein 7, with GGSG linker), N-terminal, kept
T3 sequence (Q8DIQ1 255-450): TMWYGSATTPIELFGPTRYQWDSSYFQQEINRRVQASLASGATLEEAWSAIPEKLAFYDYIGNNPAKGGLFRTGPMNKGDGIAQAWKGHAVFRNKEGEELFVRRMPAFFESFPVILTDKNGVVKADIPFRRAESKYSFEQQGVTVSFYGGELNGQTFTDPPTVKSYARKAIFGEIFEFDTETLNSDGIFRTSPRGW

PsbV [3] = molecular target: T1, PsbV; experiment: SPR; Biacore3000, CM5 chip coated with DNase E7; extrinsic proteins as Im7 fusion proteins overexpressed in E. coli; who was immobilised is not told in the main text; details in the supplementary material

Binder | Kd (CyanoP) [µM] | Kd (PsbO) [µM] | other results
Im7-CP43 (e-loop of CP43 fused to Im7) (domain or fragment, luminal e-loop of CP43 (PsbC) of Thermosynechococcus elongatus; source: cell-free expression (RTS100, 5Prime), purified on the SPR sensor surface via DNase E7; not shown: Im7 (immunity protein 7, with GGSG linker), N-terminal, kept) not shown | 55 | ~50 | Kd (PsbV [1]): 26 µM
B1 | – | – | Kd [2]: 91 µM
Im7-pD1 (C-terminal D1 domain with precursor peptide fused to Im7) (domain or fragment) not shown | 76 | – | –
Im7-mD1 (C-terminal D1 domain in its processed form fused to Im7) (domain or fragment) not shown | 74 | – | –
HERNAHNFPLDLA (domain or fragment, Thermosynechococcus elongatus, UniProt P0A444 332-344, looked up, C-terminal peptide of processed D1, D1 (PsbA1) of Thermosynechococcus elongatus, residues H332-A344; also called D1 peptide; the 13 C-terminal residues of mature D1; source: cell-free expression (RTS100, 5Prime), purified on the SPR sensor surface via DNase E7; not shown: Im7 (immunity protein 7, with GGSG linker), N-terminal, kept) [Im7-D1pep (C-terminal peptide of processed D1 fused to Im7)] | 100 to 150 | – | –
Im7 fusion protein of PsbU (natural protein, Thermosynechococcus elongatus, UniProt Q9F1L5 31-134, looked up, PsbU of Thermosynechococcus elongatus, without signal peptide; PsbU is described only as an Im7 fusion protein; source: E. coli Overexpress C43, purified) ATASTEEELVNVVDEKLGTAYGEKIDLNNTNIAAFIQYRGLYPTLAKLIVKNAPYESVEDVLNIPGLTERQKQILRENLEHFTVTEVETALVEGGDRYNNGLYK | – | – | Kd (PsbV [3]): 146 µM
Im7-D1a (D1 a-loop fused to Im7) (domain or fragment, D1 a-loop, D1 (PsbA1) of Thermosynechococcus elongatus, residues A54-Q113; source: cell-free expression (RTS100, 5Prime), purified on the SPR sensor surface via DNase E7; not shown: Im7 (immunity protein 7, with GGSG linker), N-terminal, kept) not shown | 16.2 | 50 to 100 | –
Im7-D2 (C-terminal domain of D2 fused to Im7) (domain or fragment, luminal C-terminal domain of D2 (PsbD) of Thermosynechococcus elongatus; source: cell-free expression (RTS100, 5Prime), purified on the SPR sensor surface via DNase E7; not shown: Im7 (immunity protein 7, with GGSG linker), N-terminal, kept) not shown | 5.2 | ~50 | –
